This passage reports reduction of binding compared with WT results from paper doi:10.1101/2024.02.27.582283.

The assay addresses SET-26::GFP, excessively sumoylated (ulp-2 loss of activity background) (C. elegans) (UniProt Q9U263). Put plainly: co-IP.
Chain of UniProt Q9U263 (Q9U263 whole entry): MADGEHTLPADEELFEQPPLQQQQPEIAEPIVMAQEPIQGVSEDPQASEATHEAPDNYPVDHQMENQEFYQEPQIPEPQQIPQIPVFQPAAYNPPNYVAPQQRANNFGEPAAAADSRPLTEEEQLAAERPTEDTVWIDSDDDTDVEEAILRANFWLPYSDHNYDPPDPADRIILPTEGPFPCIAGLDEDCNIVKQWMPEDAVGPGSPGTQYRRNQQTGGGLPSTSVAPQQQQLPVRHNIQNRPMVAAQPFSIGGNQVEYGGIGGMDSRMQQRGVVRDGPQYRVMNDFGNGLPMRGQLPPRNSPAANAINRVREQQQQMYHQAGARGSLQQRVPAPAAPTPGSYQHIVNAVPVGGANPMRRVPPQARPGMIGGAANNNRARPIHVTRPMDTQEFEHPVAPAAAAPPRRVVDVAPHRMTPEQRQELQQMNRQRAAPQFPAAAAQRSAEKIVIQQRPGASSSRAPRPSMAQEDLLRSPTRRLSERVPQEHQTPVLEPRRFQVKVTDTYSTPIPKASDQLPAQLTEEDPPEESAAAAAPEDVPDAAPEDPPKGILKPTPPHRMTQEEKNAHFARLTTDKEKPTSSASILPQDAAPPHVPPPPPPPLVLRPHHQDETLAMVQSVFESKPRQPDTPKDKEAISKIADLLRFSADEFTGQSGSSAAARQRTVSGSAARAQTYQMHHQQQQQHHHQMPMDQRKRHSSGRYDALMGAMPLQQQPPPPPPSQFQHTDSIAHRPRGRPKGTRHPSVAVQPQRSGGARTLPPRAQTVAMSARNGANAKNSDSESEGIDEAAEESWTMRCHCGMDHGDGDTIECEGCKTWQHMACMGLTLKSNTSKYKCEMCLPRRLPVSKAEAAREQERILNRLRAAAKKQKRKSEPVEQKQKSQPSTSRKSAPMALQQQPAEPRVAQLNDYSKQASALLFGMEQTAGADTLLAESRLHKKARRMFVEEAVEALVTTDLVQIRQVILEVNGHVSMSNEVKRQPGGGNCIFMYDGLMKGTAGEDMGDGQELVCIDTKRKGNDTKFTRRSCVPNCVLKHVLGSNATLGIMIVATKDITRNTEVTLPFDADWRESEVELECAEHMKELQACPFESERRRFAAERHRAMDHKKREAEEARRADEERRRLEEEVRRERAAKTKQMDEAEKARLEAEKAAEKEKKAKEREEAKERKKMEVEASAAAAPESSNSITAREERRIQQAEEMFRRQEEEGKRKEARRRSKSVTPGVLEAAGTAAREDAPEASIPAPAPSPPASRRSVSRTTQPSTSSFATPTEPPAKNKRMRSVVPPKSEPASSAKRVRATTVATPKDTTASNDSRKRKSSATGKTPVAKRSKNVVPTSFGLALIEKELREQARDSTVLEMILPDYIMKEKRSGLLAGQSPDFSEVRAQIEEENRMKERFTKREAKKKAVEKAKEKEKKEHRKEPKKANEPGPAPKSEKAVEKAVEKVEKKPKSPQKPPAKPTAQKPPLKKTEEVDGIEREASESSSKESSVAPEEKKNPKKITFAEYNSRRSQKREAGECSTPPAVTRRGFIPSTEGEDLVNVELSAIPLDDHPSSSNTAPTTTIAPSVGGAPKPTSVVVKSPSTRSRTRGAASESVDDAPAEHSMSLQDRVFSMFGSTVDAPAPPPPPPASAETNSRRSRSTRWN

As to “Histone H3 trimethylated at lysine 4 (H3K4me3) (from UniProt P08898 1-136) (natural protein)”, the reduction of binding compared with WT worked out at 55%.
